Results from patent publication CN116284353A.

Biological target: 柯萨奇病毒A16型病毒样颗粒 (Coxsackievirus A16) (UniProt Q65900)
Test: sandwich ELISA: rabbit anti-CV A16 VLP polyclonal serum (1:8000) as capture, CV A16 VLP titrated, mAb 10 ng/μL as detector; positive when OD450nm>0.15

Sequence of UniProt Q65900 (Q65900 2-862): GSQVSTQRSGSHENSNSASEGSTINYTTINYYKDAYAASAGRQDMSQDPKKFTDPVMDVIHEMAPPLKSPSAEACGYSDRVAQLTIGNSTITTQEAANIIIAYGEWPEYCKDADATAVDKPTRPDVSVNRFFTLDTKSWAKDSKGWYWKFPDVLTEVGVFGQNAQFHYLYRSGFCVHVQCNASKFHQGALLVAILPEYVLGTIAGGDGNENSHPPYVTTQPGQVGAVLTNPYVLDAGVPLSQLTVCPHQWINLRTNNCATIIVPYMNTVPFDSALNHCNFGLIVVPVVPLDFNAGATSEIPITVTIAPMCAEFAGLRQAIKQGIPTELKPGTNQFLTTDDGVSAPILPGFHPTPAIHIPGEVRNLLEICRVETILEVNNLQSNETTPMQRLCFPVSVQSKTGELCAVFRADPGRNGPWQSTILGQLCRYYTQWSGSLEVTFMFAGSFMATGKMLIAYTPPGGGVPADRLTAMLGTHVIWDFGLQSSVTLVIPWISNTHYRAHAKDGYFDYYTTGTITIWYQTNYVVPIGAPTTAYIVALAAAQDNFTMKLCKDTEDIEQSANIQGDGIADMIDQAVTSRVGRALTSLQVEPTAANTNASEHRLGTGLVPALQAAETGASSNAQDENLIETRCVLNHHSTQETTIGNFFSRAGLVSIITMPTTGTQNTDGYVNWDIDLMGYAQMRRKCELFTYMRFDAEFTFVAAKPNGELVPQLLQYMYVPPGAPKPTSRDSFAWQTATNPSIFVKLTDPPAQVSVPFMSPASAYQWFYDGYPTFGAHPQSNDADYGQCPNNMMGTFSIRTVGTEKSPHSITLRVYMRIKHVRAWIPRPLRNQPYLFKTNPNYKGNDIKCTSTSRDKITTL

B1: 单克隆抗体3H5 (antibody, mouse IgG1, kappa, V domains shown)
VH: EVKLEESGGGLVQPGGSMKLSCVGSGFTFSNYWMNWVRQSPDKGLEWVAEIRSKSNNYATHYAESVKGRLTISRDDSKSGVYLQMNNLRPEDTGIYYCTRSGAYWGQGTLVTVSA
VL: QIVLTQSPAIMSASPGEKVTMTCSASSSVSYIYWYQQKPGSSPRLLIYDTTRLASGVPVRFSGSGSGTSYSLTISRMEAEDAATYYCQHWNSYPFTFGSGTKLEIKR
最低检出限度: 62.5 ng/mL
